From publication PMC3197615 come the findings set out here.

Test [1] deals with human Ephrin A4 on transduced WOP cells (human) (UniProt P52798).
Test [2] concerns the target mouse Ephrin A4 on transduced WOP cells (mouse) (UniProt O08542).
Test [3] concerns the target rat Ephrin A4 on transduced WOP cells (rat).

UniProt O08542, sequence (O08542 26-175): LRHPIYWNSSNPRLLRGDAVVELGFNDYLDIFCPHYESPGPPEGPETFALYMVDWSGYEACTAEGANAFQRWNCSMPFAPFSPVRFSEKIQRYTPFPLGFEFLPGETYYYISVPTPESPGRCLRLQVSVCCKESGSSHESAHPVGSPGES
UniProt P52798, sequence (P52798 26-170): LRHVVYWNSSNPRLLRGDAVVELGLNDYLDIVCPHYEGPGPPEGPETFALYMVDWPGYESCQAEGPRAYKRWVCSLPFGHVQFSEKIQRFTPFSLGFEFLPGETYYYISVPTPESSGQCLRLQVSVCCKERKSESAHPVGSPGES

Turning to “IAPE Env (IAPE D2*) on transfected 293T cells (natural protein)”, the fold increase of the titre of IAPE Env pseudotypes over no-Env pseudotypes on transduced WOP cells (fold increase) was 231 in test [1], 16 in test [2] and 16 in test [3].
